Measurements taken from article PMC2712960.

Tests used:
[1] = molecular target: b6f complex (monomer of 140 kD) (C. reinhardtii (endogenous)) (UniProt P23577); assay: native gel or EMSA
[2] = molecular target: b6f complex with cytochrome b6 C35V (C. reinhardtii (endogenous)) (UniProt P23577); assay: native gel or EMSA

Row | Substance | stoichiometry N [1] | stoichiometry N [2]
1 | b6f complex (monomer of 140 kD) (from UniProt P23577 32-317; Q00471 1-215; P23230 1-160) | 2 | 
2 | b6f complex with cytochrome b6 C35V (from UniProt P23577 32-317; Q00471 1-215; P23230 1-160) |  | 2
